Data: patent US20250018014A1, “METHOD FOR TREATING AND/OR PREVENTING REGNASE-1-RELATED DISEASE” (OSAKA UNIVERSITY, priority 2018, published 2025)
Read-outs that look alike come from different tables or passages of the source. Positions of bridges follow the written chain, without caps; N, C: chain ends. Non-standard residues stand in square brackets, D forms with d. *: point of attachment. NMeA = CN[C@@H](C)C(=O)O; Pyrrolidide = C1CCN(*)C1; dNMeA = CN[C@H](C)C(=O)O

T1: full-length human Regnase-1 with a FLAG tag on the N-terminal side and a biotin ligase BirA recognition … (human, UniProt Q5D1E8 1-599, biotinylated at the BirA recognition sequence when required)
T1 sequence: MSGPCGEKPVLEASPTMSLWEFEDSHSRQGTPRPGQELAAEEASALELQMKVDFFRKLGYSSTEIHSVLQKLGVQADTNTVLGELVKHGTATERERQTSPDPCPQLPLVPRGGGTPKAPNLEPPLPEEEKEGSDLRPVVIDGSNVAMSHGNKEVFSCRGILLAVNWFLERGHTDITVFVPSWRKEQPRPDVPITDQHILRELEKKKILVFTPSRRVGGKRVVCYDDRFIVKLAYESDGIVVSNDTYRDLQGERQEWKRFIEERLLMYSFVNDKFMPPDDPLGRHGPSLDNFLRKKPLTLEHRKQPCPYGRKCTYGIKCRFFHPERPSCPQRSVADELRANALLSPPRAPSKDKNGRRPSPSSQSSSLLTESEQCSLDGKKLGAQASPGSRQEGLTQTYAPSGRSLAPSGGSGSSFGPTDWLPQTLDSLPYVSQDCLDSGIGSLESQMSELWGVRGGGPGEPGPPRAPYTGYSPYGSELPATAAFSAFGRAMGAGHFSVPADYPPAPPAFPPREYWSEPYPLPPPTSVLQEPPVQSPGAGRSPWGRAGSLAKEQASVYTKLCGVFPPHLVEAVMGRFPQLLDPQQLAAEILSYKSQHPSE

T2: C-terminal domain-deleted human Regnase-1 (amino acids 1 to 546) with N-terminal FLAG tag and C-terminal BirA … (human, UniProt Q5D1E8 1-546)
T2 sequence: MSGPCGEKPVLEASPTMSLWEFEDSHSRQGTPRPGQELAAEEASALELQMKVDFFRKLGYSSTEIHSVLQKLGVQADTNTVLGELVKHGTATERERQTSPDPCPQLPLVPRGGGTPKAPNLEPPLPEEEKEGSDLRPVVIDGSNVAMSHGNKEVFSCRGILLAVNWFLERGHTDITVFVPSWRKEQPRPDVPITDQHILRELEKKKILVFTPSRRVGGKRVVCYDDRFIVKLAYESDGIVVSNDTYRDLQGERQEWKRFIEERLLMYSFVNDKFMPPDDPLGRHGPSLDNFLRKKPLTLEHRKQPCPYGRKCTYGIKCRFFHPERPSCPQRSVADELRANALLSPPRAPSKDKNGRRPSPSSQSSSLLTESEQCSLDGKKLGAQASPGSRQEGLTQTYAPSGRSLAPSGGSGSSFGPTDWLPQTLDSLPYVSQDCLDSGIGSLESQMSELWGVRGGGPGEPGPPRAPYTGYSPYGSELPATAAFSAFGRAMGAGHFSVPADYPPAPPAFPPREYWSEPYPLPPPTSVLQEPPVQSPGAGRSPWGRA

T3: C-terminal human Regnase-1 (amino acids 301 to 599) with N-terminal FLAG tag and C-terminal BirA recognition … (human, UniProt Q5D1E8 301-599)
T3 sequence: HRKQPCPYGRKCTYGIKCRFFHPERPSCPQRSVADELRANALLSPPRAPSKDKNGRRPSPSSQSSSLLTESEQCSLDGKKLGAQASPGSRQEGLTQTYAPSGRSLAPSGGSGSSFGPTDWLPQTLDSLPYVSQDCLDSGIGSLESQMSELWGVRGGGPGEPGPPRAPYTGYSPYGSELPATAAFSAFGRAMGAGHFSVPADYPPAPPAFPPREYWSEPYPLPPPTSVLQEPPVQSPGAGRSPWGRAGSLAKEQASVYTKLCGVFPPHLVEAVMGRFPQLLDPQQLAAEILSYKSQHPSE


Experiments:
Assay in all cases: cell-based or functional assay
[1] = target: T1, full-length human Regnase-1 with a FLAG …
[2] = target: T2, C-terminal domain-deleted human …
[3] = target: T3, C-terminal human Regnase-1 (amino acids …)
[4] = target: T1, full-length human Regnase-1 with a FLAG …; remark: listed apart in the source
[5] = target: T2, C-terminal domain-deleted human …; remark: listed apart in the source
[6] = target: T3, C-terminal human Regnase-1 (amino acids …); remark: listed apart in the source
[7] = target: T1, full-length human Regnase-1 with a FLAG …; remark: listed apart in the source
[8] = target: T2, C-terminal domain-deleted human …; remark: listed apart in the source

Binder	50% inhibition concentration, Regnase-1 phosphorylation by IKKβ (AlphaScreen) [1] [µM]	50% inhibition concentration, Regnase-1 phosphorylation by TBK1 (AlphaScreen) [1] [µM]	50% inhibition concentration, Regnase-1 phosphorylation by IKKβ (AlphaScreen) [2] [µM]	50% inhibition concentration, Regnase-1 phosphorylation by TBK1 (AlphaScreen) [2] [µM]	50% inhibition concentration, Regnase-1 phosphorylation by IKKβ (AlphaScreen) [3] [µM]	50% inhibition concentration, Regnase-1 phosphorylation by IKKβ (AlphaScreen) [4] [µM]	50% inhibition concentration, Regnase-1 phosphorylation by IKKβ (AlphaScreen) [5] [µM]	50% inhibition concentration, Regnase-1 phosphorylation by TBK1 (AlphaScreen) [6] [µM]	50% inhibition concentration, Regnase-1 phosphorylation by TBK1 (AlphaScreen) [7] [µM]	50% inhibition concentration, Regnase-1 phosphorylation by TBK1 (AlphaScreen) [8] [µM]
XHSNAWYNIWD (HELM PEPTIDE1{[meA].H.S.N.A.W.Y.N.I.W.D.[C1CCN([*:1])C1]}$PEPTIDE1,PEPTIDE1,1:R1-11:R3$$$V2.0; SMILES CC[C@H](C)[C@@H]1NC(=O)[C@H](CC(N)=O)NC(=O)[C@H](Cc2ccc(O)cc2)NC(=O)[C@H](Cc2c[nH]c3ccccc23)NC(=O)[C@H](C)NC(=O)[C@H](CC(N)=O)NC(=O)[C@H](CO)NC(=O)[C@H](Cc2c[nH]cn2)NC(=O)[C@H](C)N(C)C(=O)C[C@@H](C(=O)N2CCCC2)NC(=O)[C@H](Cc2c[nH]c3ccccc23)NC1=O) [PP5]	23.6	24.2	20.4	19.1	31.3	23.6	20.4	40.4	24.2	19.1
[NMeA]YIWDFFGDLD-Pyrrolidide (lactam N-11) [PP4]	19.5	61.9	8.3	44.9	12.8	19.5	8.3	35.9	61.9	44.9
[dNMeA]KHASAWYRIWD-Pyrrolidide (lactam N-12) [PP3]	4.6	3.9	8.3	5.7	6.8	4.6	8.3	7.1	3.9	5.7
XGYANSWYNIWD (HELM PEPTIDE1{[meA].G.Y.A.N.S.W.Y.N.I.W.D.[C1CCN([*:1])C1]}$PEPTIDE1,PEPTIDE1,1:R1-12:R3$$$V2.0; SMILES CC[C@H](C)[C@@H]1NC(=O)[C@H](CC(N)=O)NC(=O)[C@H](Cc2ccc(O)cc2)NC(=O)[C@H](Cc2c[nH]c3ccccc23)NC(=O)[C@H](CO)NC(=O)[C@H](CC(N)=O)NC(=O)[C@H](C)NC(=O)[C@H](Cc2ccc(O)cc2)NC(=O)CNC(=O)[C@H](C)N(C)C(=O)C[C@@H](C(=O)N2CCCC2)NC(=O)[C@H](Cc2c[nH]c3ccccc23)NC1=O) [PP2]	16.6	21.7	14	17.6	18.5	16.6	14	22.4	21.7	17.6
XPNSSWFKIWD (HELM PEPTIDE1{[C[C@H](C(=O)[*:2])N(C)[*:1]].P.N.S.S.W.F.K.I.W.D.[C1CCN([*:1])C1]}$PEPTIDE1,PEPTIDE1,1:R1-11:R3$$$V2.0; SMILES CC[C@H](C)[C@@H]1NC(=O)[C@H](CCCCN)NC(=O)[C@H](Cc2ccccc2)NC(=O)[C@H](Cc2c[nH]c3ccccc23)NC(=O)[C@H](CO)NC(=O)[C@H](CO)NC(=O)[C@H](CC(N)=O)NC(=O)[C@@H]2CCCN2C(=O)[C@@H](C)N(C)C(=O)C[C@@H](C(=O)N2CCCC2)NC(=O)[C@H](Cc2c[nH]c3ccccc23)NC1=O) [PP6]	17	13.1	20.3	14.5	17.5	17	20.3	16.8	13.1	14.5
